Test results taken from patent publication US20220064312A1.

Biological target: human CCR8 (human) (UniProt P51685)
Experiment: cell-based or functional assay

Sequence of human CCR8 (human) (P51685 whole entry): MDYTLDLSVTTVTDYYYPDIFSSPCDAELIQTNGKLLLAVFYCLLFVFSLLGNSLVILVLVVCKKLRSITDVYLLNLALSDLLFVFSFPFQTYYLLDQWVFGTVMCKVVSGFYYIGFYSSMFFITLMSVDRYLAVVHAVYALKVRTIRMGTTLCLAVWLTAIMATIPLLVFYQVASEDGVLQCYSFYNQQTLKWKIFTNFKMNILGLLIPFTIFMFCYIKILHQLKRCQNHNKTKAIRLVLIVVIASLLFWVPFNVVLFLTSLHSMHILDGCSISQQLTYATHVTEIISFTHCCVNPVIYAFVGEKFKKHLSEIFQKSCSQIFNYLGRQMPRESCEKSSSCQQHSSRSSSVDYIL

| IC50 ratio (WT IC50/mutant IC50) | IC50 (n.d.: 10 nM or more) | Binder |
| --- | --- | --- |
| 0.54 | – | h10A11 IGKV4-1/IGHV3-73 K64R (antibody, name in Kabat numbering, V domains shown) VH: EVQLVESGGGLVQPGGSLKLSCAASGFAFNTYALYWVRQASGKGLEWVGRIRSKSNNYATYYADSVRDRFTISRDDSKNTAYLQMNSLKTEDTAVYYCTRARFYYSDYGYAMDYWGQGTLVTVSS VL: DIVMTQSPDSLAVSLGERATINCRSSKSLLHSNGNTYLYWYQQKPGQPPKLLIYRMSNLASGVPDRFSGSGSGTDFTLTISSLQAEDVAVYYCMQHLEYPLTFGQGTKLEIKR |
| 0.8 | – | h10A11 IGKV4-1/IGHV3-73 Y99F (antibody, name in Kabat numbering, V domains shown) VH: EVQLVESGGGLVQPGGSLKLSCAASGFAFNTYALYWVRQASGKGLEWVGRIRSKSNNYATYYADSVKDRFTISRDDSKNTAYLQMNSLKTEDTAVYYCTRARFYFSDYGYAMDYWGQGTLVTVSS VL: DIVMTQSPDSLAVSLGERATINCRSSKSLLHSNGNTYLYWYQQKPGQPPKLLIYRMSNLASGVPDRFSGSGSGTDFTLTISSLQAEDVAVYYCMQHLEYPLTFGQGTKLEIKR |
| 0.3 | – | h10A11 IGKV4-1/IGHV3-73 D100aE (antibody, name in Kabat numbering, V domains shown) VH: EVQLVESGGGLVQPGGSLKLSCAASGFAFNTYALYWVRQASGKGLEWVGRIRSKSNNYATYYADSVKDRFTISRDDSKNTAYLQMNSLKTEDTAVYYCTRARFYYSEYGYAMDYWGQGTLVTVSS VL: DIVMTQSPDSLAVSLGERATINCRSSKSLLHSNGNTYLYWYQQKPGQPPKLLIYRMSNLASGVPDRFSGSGSGTDFTLTISSLQAEDVAVYYCMQHLEYPLTFGQGTKLEIKR |
| 0.49 | – | h10A11 IGKV4-1/IGHV3-73 A100eV (antibody, name in Kabat numbering, V domains shown) VH: EVQLVESGGGLVQPGGSLKLSCAASGFAFNTYALYWVRQASGKGLEWVGRIRSKSNNYATYYADSVKDRFTISRDDSKNTAYLQMNSLKTEDTAVYYCTRARFYYSDYGYVMDYWGQGTLVTVSS VL: DIVMTQSPDSLAVSLGERATINCRSSKSLLHSNGNTYLYWYQQKPGQPPKLLIYRMSNLASGVPDRFSGSGSGTDFTLTISSLQAEDVAVYYCMQHLEYPLTFGQGTKLEIKR |
| 1.3 | – | h10A11 IGKV4-1/IGHV3-73 D65E (antibody, name in Kabat numbering, V domains shown) VH: EVQLVESGGGLVQPGGSLKLSCAASGFAFNTYALYWVRQASGKGLEWVGRIRSKSNNYATYYADSVKERFTISRDDSKNTAYLQMNSLKTEDTAVYYCTRARFYYSDYGYAMDYWGQGTLVTVSS VL: DIVMTQSPDSLAVSLGERATINCRSSKSLLHSNGNTYLYWYQQKPGQPPKLLIYRMSNLASGVPDRFSGSGSGTDFTLTISSLQAEDVAVYYCMQHLEYPLTFGQGTKLEIKR |
| 0.64 | – | h10A11 IGKV4-1/IGHV3-73 S100T (antibody, name in Kabat numbering, V domains shown) VH: EVQLVESGGGLVQPGGSLKLSCAASGFAFNTYALYWVRQASGKGLEWVGRIRSKSNNYATYYADSVKDRFTISRDDSKNTAYLQMNSLKTEDTAVYYCTRARFYYTDYGYAMDYWGQGTLVTVSS VL: DIVMTQSPDSLAVSLGERATINCRSSKSLLHSNGNTYLYWYQQKPGQPPKLLIYRMSNLASGVPDRFSGSGSGTDFTLTISSLQAEDVAVYYCMQHLEYPLTFGQGTKLEIKR |
| 0.75 | – | h10A11 IGKV4-1/IGHV3-73 Y100bF (antibody, name in Kabat numbering, V domains shown) VH: EVQLVESGGGLVQPGGSLKLSCAASGFAFNTYALYWVRQASGKGLEWVGRIRSKSNNYATYYADSVKDRFTISRDDSKNTAYLQMNSLKTEDTAVYYCTRARFYYSDFGYAMDYWGQGTLVTVSS VL: DIVMTQSPDSLAVSLGERATINCRSSKSLLHSNGNTYLYWYQQKPGQPPKLLIYRMSNLASGVPDRFSGSGSGTDFTLTISSLQAEDVAVYYCMQHLEYPLTFGQGTKLEIKR |
| – | > 10 nM | h10A11 IGKV4-1/IGHV3-73 F97L (antibody, name in Kabat numbering, V domains shown) VH: EVQLVESGGGLVQPGGSLKLSCAASGFAFNTYALYWVRQASGKGLEWVGRIRSKSNNYATYYADSVKDRFTISRDDSKNTAYLQMNSLKTEDTAVYYCTRARLYYSDYGYAMDYWGQGTLVTVSS VL: DIVMTQSPDSLAVSLGERATINCRSSKSLLHSNGNTYLYWYQQKPGQPPKLLIYRMSNLASGVPDRFSGSGSGTDFTLTISSLQAEDVAVYYCMQHLEYPLTFGQGTKLEIKR |
| – | > 10 nM | h10A11 IGKV4-1/IGHV3-73 D101E (antibody, name in Kabat numbering, V domains shown) VH: EVQLVESGGGLVQPGGSLKLSCAASGFAFNTYALYWVRQASGKGLEWVGRIRSKSNNYATYYADSVKDRFTISRDDSKNTAYLQMNSLKTEDTAVYYCTRARFYYSDYGYAMEYWGQGTLVTVSS VL: DIVMTQSPDSLAVSLGERATINCRSSKSLLHSNGNTYLYWYQQKPGQPPKLLIYRMSNLASGVPDRFSGSGSGTDFTLTISSLQAEDVAVYYCMQHLEYPLTFGQGTKLEIKR |
| 0.55 | – | h10A11 IGKV4-1/IGHV3-73 Y100dF (antibody, name in Kabat numbering, V domains shown) VH: EVQLVESGGGLVQPGGSLKLSCAASGFAFNTYALYWVRQASGKGLEWVGRIRSKSNNYATYYADSVKDRFTISRDDSKNTAYLQMNSLKTEDTAVYYCTRARFYYSDYGFAMDYWGQGTLVTVSS VL: DIVMTQSPDSLAVSLGERATINCRSSKSLLHSNGNTYLYWYQQKPGQPPKLLIYRMSNLASGVPDRFSGSGSGTDFTLTISSLQAEDVAVYYCMQHLEYPLTFGQGTKLEIKR |
| – | > 10 nM | h10A11 IGKV4-1/IGHV3-73 R96K (antibody, name in Kabat numbering, V domains shown) VH: EVQLVESGGGLVQPGGSLKLSCAASGFAFNTYALYWVRQASGKGLEWVGRIRSKSNNYATYYADSVKDRFTISRDDSKNTAYLQMNSLKTEDTAVYYCTRAKFYYSDYGYAMDYWGQGTLVTVSS VL: DIVMTQSPDSLAVSLGERATINCRSSKSLLHSNGNTYLYWYQQKPGQPPKLLIYRMSNLASGVPDRFSGSGSGTDFTLTISSLQAEDVAVYYCMQHLEYPLTFGQGTKLEIKR |
| 0.99 | – | h10A11 IGKV4-1/IGHV3-73 Y102F (antibody, name in Kabat numbering, V domains shown) VH: EVQLVESGGGLVQPGGSLKLSCAASGFAFNTYALYWVRQASGKGLEWVGRIRSKSNNYATYYADSVKDRFTISRDDSKNTAYLQMNSLKTEDTAVYYCTRARFYYSDYGYAMDFWGQGTLVTVSS VL: DIVMTQSPDSLAVSLGERATINCRSSKSLLHSNGNTYLYWYQQKPGQPPKLLIYRMSNLASGVPDRFSGSGSGTDFTLTISSLQAEDVAVYYCMQHLEYPLTFGQGTKLEIKR |
| 0.07 | – | h10A11 IGKV4-1/IGHV3-73 G100cA (antibody, name in Kabat numbering, V domains shown) VH: EVQLVESGGGLVQPGGSLKLSCAASGFAFNTYALYWVRQASGKGLEWVGRIRSKSNNYATYYADSVKDRFTISRDDSKNTAYLQMNSLKTEDTAVYYCTRARFYYSDYAYAMDYWGQGTLVTVSS VL: DIVMTQSPDSLAVSLGERATINCRSSKSLLHSNGNTYLYWYQQKPGQPPKLLIYRMSNLASGVPDRFSGSGSGTDFTLTISSLQAEDVAVYYCMQHLEYPLTFGQGTKLEIKR |
| 0.72 | – | h10A11 IGKV4-1/IGHV3-73 M100fL (antibody, name in Kabat numbering, V domains shown) VH: EVQLVESGGGLVQPGGSLKLSCAASGFAFNTYALYWVRQASGKGLEWVGRIRSKSNNYATYYADSVKDRFTISRDDSKNTAYLQMNSLKTEDTAVYYCTRARFYYSDYGYALDYWGQGTLVTVSS VL: DIVMTQSPDSLAVSLGERATINCRSSKSLLHSNGNTYLYWYQQKPGQPPKLLIYRMSNLASGVPDRFSGSGSGTDFTLTISSLQAEDVAVYYCMQHLEYPLTFGQGTKLEIKR |
| 0.07 | – | h10A11 IGKV4-1/IGHV3-73 Y98F (antibody, name in Kabat numbering, V domains shown) VH: EVQLVESGGGLVQPGGSLKLSCAASGFAFNTYALYWVRQASGKGLEWVGRIRSKSNNYATYYADSVKDRFTISRDDSKNTAYLQMNSLKTEDTAVYYCTRARFFYSDYGYAMDYWGQGTLVTVSS VL: DIVMTQSPDSLAVSLGERATINCRSSKSLLHSNGNTYLYWYQQKPGQPPKLLIYRMSNLASGVPDRFSGSGSGTDFTLTISSLQAEDVAVYYCMQHLEYPLTFGQGTKLEIKR |
